Tests used:
[1] = molecular target: HER-2 protein (also designated neu and erbB-2), endogenous in human MDA-MB-468 cells (human) (UniProt P04626); test: FACS, MDA-MB-468 cells, irrelevant IgG2b control at 1/100, Alexa Fluor 488 secondary; background
[2] = molecular target: HER-2 protein (also designated neu and erbB-2), endogenous in human MDA-MB-468 cells (human) (UniProt P04626); test: FACS, fixed and permeabilized parental MDA-MB-468 cells, antibody at 1/100, Alexa Fluor 488 secondary

Substance | Geometric mean Fluorescence [1] | Mean Fluorescence [1] | Geometric mean Fluorescence [2] | Mean Fluorescence [2] | Median Fluorescence [2]
irrelevant primary antibody MART-1, an IgG2b antibody (NeoMarkers) | 122 | 137 | – | – | –
mouse Anti-erbB2 monoclonal antibody (Transduction Laboratories, Cat. No. E19420, an IgG2b isotype) | – | – | 1090 | 1220 | 1180

— patent US20030182672A1
